The source of these data is publication PMC3001473 (PLoS ONE, 2010).

The experiment has as its target LcrV (V antigen) of Yersinia pestis (Yersinia pestis, UniProt P0C7U7 1-326). Nature of the experiment: SPR; Biacore 3000; […]; HBS-P pH 7.4; […]. To be noted: both partners purified. Background: Surface plasmon resonance follows binding to a sensor surface in real time, without labels.

Sequence of LcrV (V antigen) of Yersinia pestis (P0C7U7 whole entry): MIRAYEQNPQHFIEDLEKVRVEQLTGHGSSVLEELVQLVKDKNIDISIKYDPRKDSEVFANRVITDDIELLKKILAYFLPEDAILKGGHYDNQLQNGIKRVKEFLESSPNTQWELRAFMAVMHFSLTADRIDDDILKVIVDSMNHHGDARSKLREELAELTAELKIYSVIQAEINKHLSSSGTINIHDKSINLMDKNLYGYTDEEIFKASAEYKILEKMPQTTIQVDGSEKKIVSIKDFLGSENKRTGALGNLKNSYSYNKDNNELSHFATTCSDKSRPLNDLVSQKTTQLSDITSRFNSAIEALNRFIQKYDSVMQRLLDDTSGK

B1: wild-type human interferon-gamma (ligand, UniProt P01579 24-166, looked up)
chain: QDPYVKEAENLKKYFNAGHSDVADNGTLFLGILKNWKEESDRKIMQSQIVSFYFKLFKNFKDDQSIQKSVETIKEDMNVKFFNSNKKKRDDFEKLTNYSVTDLNVQRKAIHELIQVMAELSPAAKTGKRKRSQMLFRGRRASQ
notes: also called IFNγ; IFNγwt
In general, Kd refers to the constant that tells how readily two partners part at equilibrium. A lower Kd goes with a tighter complex. In the case of B1, the Kd was found to be 32 nM.
